The results in this text go back to US20260209357A1.

Common to all, as to test: SPR, ligand directly immobilised, soluble Fcγ receptor as analyte, pH 7.3
In general terms: Surface plasmon resonance follows binding to a sensor surface in real time, without labels.

The target in test [1] is human FcγRIIIA (CD16a) (human) (UniProt P08637).
Test [2] concerns the target human FcγRI (CD64) (human) (UniProt P12314).
Test [3] concerns the target human FcγRIIB (CD32B) (human) (UniProt P31994).

human FcγRIIIA (CD16a) (human), sequence (P08637 17-208): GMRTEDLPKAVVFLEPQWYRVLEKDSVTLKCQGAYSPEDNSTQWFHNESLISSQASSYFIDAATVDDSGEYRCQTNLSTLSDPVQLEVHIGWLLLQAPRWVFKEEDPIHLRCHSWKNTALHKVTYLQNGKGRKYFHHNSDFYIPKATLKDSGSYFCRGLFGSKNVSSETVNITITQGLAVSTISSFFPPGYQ
human FcγRI (CD64) (human), sequence (P12314 16-292): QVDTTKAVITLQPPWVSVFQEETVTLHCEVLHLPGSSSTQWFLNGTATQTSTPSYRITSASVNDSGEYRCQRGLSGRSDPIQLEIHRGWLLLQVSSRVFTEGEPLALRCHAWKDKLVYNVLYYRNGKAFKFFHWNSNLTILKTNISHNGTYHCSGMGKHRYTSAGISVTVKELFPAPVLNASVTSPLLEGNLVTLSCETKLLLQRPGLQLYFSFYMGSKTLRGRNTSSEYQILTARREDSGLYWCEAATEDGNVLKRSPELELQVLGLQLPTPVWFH
human FcγRIIB (CD32B) (human), sequence (P31994 43-217): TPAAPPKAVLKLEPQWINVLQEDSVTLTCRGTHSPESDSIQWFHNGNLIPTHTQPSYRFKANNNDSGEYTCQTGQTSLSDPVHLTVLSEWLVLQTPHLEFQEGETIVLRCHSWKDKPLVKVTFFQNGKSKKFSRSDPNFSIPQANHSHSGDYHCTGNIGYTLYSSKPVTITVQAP

As a reminder, the Kd is the constant that tells how readily two partners part at equilibrium. A high value points to a looser complex. huIgG1 (antibody): the Kd in test [1] worked out at 4.5 µM; in test [2], 0.000345 µM; in test [3] it was 5.8 µM.
